Test results: patent publication US20240034774A1 (Gilead, published 2024)

Experiments:
BSA = BSA (UniProt P02769 25-607); experiment: single-point ELISA, BSA control
gp120 Bal = gp120 Bal (HIV (Bal)); experiment: single-point ELISA at EC50 conc. of A-1
gp120 SHIV SF162 P3 = gp120 SHIV SF162 P3 (SHIV SF162 P3); experiment: single-point ELISA at EC50 conc. of A-1
gp120 CAAN = gp120 CAAN (HIV (CAAN)); experiment: single-point ELISA at EC50 conc. of A-1

| Binder | ELISA A450 (BSA) | ELISA A450 (gp120 Bal) | ELISA A450 (gp120 SHIV SF162 P3) | ELISA A450 (gp120 CAAN) |
| --- | --- | --- | --- | --- |
| Antibody A-1 (antibody, human IgG1, kappa) heavy: QVQLLQSGAAVTKPGASVRVSCEASGYNIRDYFIHWWRQAPGQGLQWVGWINPKTGQPNNPRQFQGRVSLTRHASWDFDTFSFYMDLKALRSDDTAVYFCARQRSDYWDFDVWGSGTQVTVSSASTKGPSVFPLAPSSKSTSGGTAALGCLVKDYFPEPVTVSWNSGALTSGVHTFPAVLQSSGLYSLSSVVTVPSSSLGTQTYICNVNHKPSNTKVDKKVEPKSCDKTHTCPPCPAPELLAGPDVFLFPPKPKDTLMISRTPEVTCVVVDVSHEDPEVKFNWYVDGVEVHNAKTKPREEQYNSTYRVVSVLTVLHQDWLNGKEYKCKVSNKALPLPEEKTISKAKGQPREPQVYTLPPSREEMTKNQVSLTCLVKGFYPSDIAVEWESNGQPENNYKTTPPVLDSDGSFFLYSKLTVDKSRWQQGNVFSCSVLHEALHSHYTQKSLSLSPGK light: DIQMTQSPSSLSASVGDTVTITCQANGYLNWYQQRRGKAPKLLIYDGSKLERGVPSRFSGRRWGQEYNLTINNLQPEDIATYFCQVYEFVVPGTRLDLKRTVAAPSVFIFPPSDEQLKSGTASVVCLLNNFYPREAKVQWKVDNALQSGNSQESVTEQDSKDSTYSLSSTLTLSKADYEKHKVYACEVTHQGLSSPVTKSFNRGEC | 0.06 A450 | 0.91 A450 | 0.94 A450 | 1.06 A450 |
| 1.36.1-1 (antibody, human IgG1, kappa) heavy: QVQLVQSGAEVKKPGASVRVSCKASGYNIRDYFMHWWRQAPGQGLQWVGWINPKTGQPNNPRQFQGRVTMTRHASWDFDTFSAYMDLSRLRSDDTATYFCARQRTDYWDFDVWGQGTMVTVSSASTKGPSVFPLAPSSKSTSGGTAALGCLVKDYFPEPVTVSWNSGALTSGVHTFPAVLQSSGLYSLSSVVTVPSSSLGTQTYICNVNHKPSNTKVDKKVEPKSCDKTHTCPPCPAPELLAGPDVFLFPPKPKDTLMISRTPEVTCVVVDVSHEDPEVKFNWYVDGVEVHNAKTKPREEQYNSTYRVVSVLTVLHQDWLNGKEYKCKVSNKALPLPEEKTISKAKGQPREPQVYTLPPSREEMTKNQVSLTCLVKGFYPSDIAVEWESNGQPENNYKTTPPVLDSDGSFFLYSKLTVDKSRWQQGNVFSCSVLHEALHSHYTQKSLSLSPGK light: DIQMTQSPSSLSASVGDTVTITCQANGYLNWYQQRRGKAPKLLIYDGSKLERGVPSRFSGRRWGQEYNLTINNLQPEDIATYFCQVYEFVVPGTRLDLKRTVAAPSVFIFPPSDEQLKSGTASVVCLLNNFYPREAKVQWKVDNALQSGNSQESVTEQDSKDSTYSLSSTLTLSKADYEKHKVYACEVTHQGLSSPVTKSFNRGEC | – | 1.13 A450 | 0.59 A450 | 0.75 A450 |
| 1.1.3-1 (antibody, human IgG1, kappa) heavy: QVQLLQSGAAVTKPGASVRVSCEASGYNIRDYFIHWWRQAPGQGLQWVGWINPKTGQPNNPRQFQGRVSLTRHASWDFDTFSFYMDLKALRSDDTAVYFCARQRSDYWDFDVWGSGTQVTVSSASTKGPSVFPLAPSSKSTSGGTAALGCLVKDYFPEPVTVSWNSGALTSGVHTFPAVLQSSGLYSLSSVVTVPSSSLGTQTYICNVNHKPSNTKVDKKVEPKSCDKTHTCPPCPAPELLAGPDVFLFPPKPKDTLMISRTPEVTCVVVDVSHEDPEVKFNWYVDGVEVHNAKTKPREEQYNSTYRVVSVLTVLHQDWLNGKEYKCKVSNKALPLPEEKTISKAKGQPREPQVYTLPPSREEMTKNQVSLTCLVKGFYPSDIAVEWESNGQPENNYKTTPPVLDSDGSFFLYSKLTVDKSRWQQGNVFSCSVLHEALHSHYTQKSLSLSPGK light: EIQMTQSPSSLSASVGDTVTITCQANGYLNWYQQRRGKAPKLLIYDGSKLERGVPSRFSGRRWGQEYNLTINNLQPEDIATYFCQVYEFVVPGTRLDLKRTVAAPSVFIFPPSDEQLKSGTASVVCLLNNFYPREAKVQWKVDNALQSGNSQESVTEQDSKDSTYSLSSTLTLSKADYEKHKVYACEVTHQGLSSPVTKSFNRGEC | 0.07 A450 | 0.97 A450 | 0.97 A450 | 1 A450 |
| 1.1.5-1 (antibody, human IgG1, kappa) heavy: QVQLLQSGAAVTKPGASVRVSCEASGYNIRDYFIHWWRQAPGQGLQWVGWINPKTGQPNNPRQFQGRVSLTRHASWDFDTFSFYMDLKALRSDDTAVYFCARQRSDYWDFDVWGSGTQVTVSSASTKGPSVFPLAPSSKSTSGGTAALGCLVKDYFPEPVTVSWNSGALTSGVHTFPAVLQSSGLYSLSSVVTVPSSSLGTQTYICNVNHKPSNTKVDKKVEPKSCDKTHTCPPCPAPELLAGPDVFLFPPKPKDTLMISRTPEVTCVVVDVSHEDPEVKFNWYVDGVEVHNAKTKPREEQYNSTYRVVSVLTVLHQDWLNGKEYKCKVSNKALPLPEEKTISKAKGQPREPQVYTLPPSREEMTKNQVSLTCLVKGFYPSDIAVEWESNGQPENNYKTTPPVLDSDGSFFLYSKLTVDKSRWQQGNVFSCSVLHEALHSHYTQKSLSLSPGK light: DIQMTQSPSSLSASVGDTVTITCQANGYLNWYQQKPGKAPKLLIYDGSKLERGVPSRFSGRRWGQEYNLTINNLQPEDIATYFCQVYEFVVPGTRLDLKRTVAAPSVFIFPPSDEQLKSGTASVVCLLNNFYPREAKVQWKVDNALQSGNSQESVTEQDSKDSTYSLSSTLTLSKADYEKHKVYACEVTHQGLSSPVTKSFNRGEC | 0.06 A450 | 0.9 A450 | 0.93 A450 | 0.9 A450 |
| 1.1.8-1 (antibody, human IgG1, kappa) heavy: QVQLLQSGAAVTKPGASVRVSCEASGYNIRDYFIHWWRQAPGQGLQWVGWINPKTGQPNNPRQFQGRVSLTRHASWDFDTFSFYMDLKALRSDDTAVYFCARQRSDYWDFDVWGSGTQVTVSSASTKGPSVFPLAPSSKSTSGGTAALGCLVKDYFPEPVTVSWNSGALTSGVHTFPAVLQSSGLYSLSSVVTVPSSSLGTQTYICNVNHKPSNTKVDKKVEPKSCDKTHTCPPCPAPELLAGPDVFLFPPKPKDTLMISRTPEVTCVVVDVSHEDPEVKFNWYVDGVEVHNAKTKPREEQYNSTYRVVSVLTVLHQDWLNGKEYKCKVSNKALPLPEEKTISKAKGQPREPQVYTLPPSREEMTKNQVSLTCLVKGFYPSDIAVEWESNGQPENNYKTTPPVLDSDGSFFLYSKLTVDKSRWQQGNVFSCSVLHEALHSHYTQKSLSLSPGK light: DIQMTQSPSSLSASVGDTVTITCQANGYLNWYQQRRGKAPKLLIYDASNLERGVPSRFSGRRWGQEYNLTINNLQPEDIATYFCQVYEFVVPGTRLDLKRTVAAPSVFIFPPSDEQLKSGTASVVCLLNNFYPREAKVQWKVDNALQSGNSQESVTEQDSKDSTYSLSSTLTLSKADYEKHKVYACEVTHQGLSSPVTKSFNRGEC | 0.06 A450 | 1.01 A450 | 0.37 A450 | 0.5 A450 |
| 1.1.7-1 (antibody, human IgG1, kappa) heavy: QVQLLQSGAAVTKPGASVRVSCEASGYNIRDYFIHWWRQAPGQGLQWVGWINPKTGQPNNPRQFQGRVSLTRHASWDFDTFSFYMDLKALRSDDTAVYFCARQRSDYWDFDVWGSGTQVTVSSASTKGPSVFPLAPSSKSTSGGTAALGCLVKDYFPEPVTVSWNSGALTSGVHTFPAVLQSSGLYSLSSVVTVPSSSLGTQTYICNVNHKPSNTKVDKKVEPKSCDKTHTCPPCPAPELLAGPDVFLFPPKPKDTLMISRTPEVTCVVVDVSHEDPEVKFNWYVDGVEVHNAKTKPREEQYNSTYRVVSVLTVLHQDWLNGKEYKCKVSNKALPLPEEKTISKAKGQPREPQVYTLPPSREEMTKNQVSLTCLVKGFYPSDIAVEWESNGQPENNYKTTPPVLDSDGSFFLYSKLTVDKSRWQQGNVFSCSVLHEALHSHYTQKSLSLSPGK light: DIQMTQSPSSLSASVGDTVTITCQANGYLNWYQQRRGKAPKLLIYDGSNLERGVPSRFSGRRWGQEYNLTINNLQPEDIATYFCQVYEFVVPGTRLDLKRTVAAPSVFIFPPSDEQLKSGTASVVCLLNNFYPREAKVQWKVDNALQSGNSQESVTEQDSKDSTYSLSSTLTLSKADYEKHKVYACEVTHQGLSSPVTKSFNRGEC | 0.06 A450 | 0.95 A450 | 1.02 A450 | 1 A450 |
| 1.1.6-1 (antibody, human IgG1, kappa) heavy: QVQLLQSGAAVTKPGASVRVSCEASGYNIRDYFIHWWRQAPGQGLQWVGWINPKTGQPNNPRQFQGRVSLTRHASWDFDTFSFYMDLKALRSDDTAVYFCARQRSDYWDFDVWGSGTQVTVSSASTKGPSVFPLAPSSKSTSGGTAALGCLVKDYFPEPVTVSWNSGALTSGVHTFPAVLQSSGLYSLSSVVTVPSSSLGTQTYICNVNHKPSNTKVDKKVEPKSCDKTHTCPPCPAPELLAGPDVFLFPPKPKDTLMISRTPEVTCVVVDVSHEDPEVKFNWYVDGVEVHNAKTKPREEQYNSTYRVVSVLTVLHQDWLNGKEYKCKVSNKALPLPEEKTISKAKGQPREPQVYTLPPSREEMTKNQVSLTCLVKGFYPSDIAVEWESNGQPENNYKTTPPVLDSDGSFFLYSKLTVDKSRWQQGNVFSCSVLHEALHSHYTQKSLSLSPGK light: DIQMTQSPSSLSASVGDTVTITCQANGYLNWYQQRRGKAPKLLIYDASKLERGVPSRFSGRRWGQEYNLTINNLQPEDIATYFCQVYEFVVPGTRLDLKRTVAAPSVFIFPPSDEQLKSGTASVVCLLNNFYPREAKVQWKVDNALQSGNSQESVTEQDSKDSTYSLSSTLTLSKADYEKHKVYACEVTHQGLSSPVTKSFNRGEC | 0.07 A450 | 0.91 A450 | 0.41 A450 | 0.46 A450 |
| 1.1.4-1 (antibody, human IgG1, kappa) heavy: QVQLLQSGAAVTKPGASVRVSCEASGYNIRDYFIHWWRQAPGQGLQWVGWINPKTGQPNNPRQFQGRVSLTRHASWDFDTFSFYMDLKALRSDDTAVYFCARQRSDYWDFDVWGSGTQVTVSSASTKGPSVFPLAPSSKSTSGGTAALGCLVKDYFPEPVTVSWNSGALTSGVHTFPAVLQSSGLYSLSSVVTVPSSSLGTQTYICNVNHKPSNTKVDKKVEPKSCDKTHTCPPCPAPELLAGPDVFLFPPKPKDTLMISRTPEVTCVVVDVSHEDPEVKFNWYVDGVEVHNAKTKPREEQYNSTYRVVSVLTVLHQDWLNGKEYKCKVSNKALPLPEEKTISKAKGQPREPQVYTLPPSREEMTKNQVSLTCLVKGFYPSDIAVEWESNGQPENNYKTTPPVLDSDGSFFLYSKLTVDKSRWQQGNVFSCSVLHEALHSHYTQKSLSLSPGK light: DIQMTQSPSSLSASVGDRVTITCQANGYLNWYQQRRGKAPKLLIYDGSKLERGVPSRFSGRRWGQEYNLTINNLQPEDIATYFCQVYEFVVPGTRLDLKRTVAAPSVFIFPPSDEQLKSGTASVVCLLNNFYPREAKVQWKVDNALQSGNSQESVTEQDSKDSTYSLSSTLTLSKADYEKHKVYACEVTHQGLSSPVTKSFNRGEC | 0.06 A450 | 0.96 A450 | 1.07 A450 | 1.09 A450 |
